Reference: article PMC6318259, “Distinct Stabilities of the Structurally Homologous Heptameric Co-Chaperonins GroES and gp31” (Journal of the American Society for Mass Spectrometry, 2018)

B1: GroES (natural protein, Escherichia coli)
chain: MNIRPLHDRVIVKRKEVETKSAGGIVLTGSAAAKSTRGEVLAVGNGRILENGEVKPLDVKVGDIVIFNDGYGVKSEKIDNEEVLIMSESDILAIVEA
notes: GroES, co-chaperonin of Escherichia coli; homo-heptamer of 10.4 kDa subunits; The printed subunit mass of 10.4 kDa fits the whole protein; also called GroES heptamer; co-chaperonin GroES; source: over-expressed in E. coli strain MC1009, purified as described previously
B2: gp31 (natural protein, bacteriophage T4)
chain: MSEVQQLPIRAVGEYVILVSEPAQAGDEEVTESGLIIGKRVQGEVPELCVVHSVGPDVPEGFCEVGDLTSLPVGQIRNVPHPFVALGLKQPKEIKQKFVTCHYKAIPCLYK
notes: gp31, co-chaperonin encoded by bacteriophage T4, structural homologue of GroES; heptamer of identical 12 kDa subunits; The printed subunit mass of 12 kDa fits the whole protein; also called gp31 heptamer; source: over-expressed in E. coli strain MC1009, purified as described previously

Biological target: the molecule itself
Test: native MS; 10 μM monomer in 10 mM aqueous ammonium acetate, pH 6.8; nano-electrospray, modified Orbitrap (Exactive Plus / Q-Exactive EMR); oligomeric state of the protein with itself

Protein	stoichiometry N
B1	7
B2	7
